Test results published in paper PMC11488661 (Science immunology, 2024).
Residue numbers refer to the chain shown, from its start.

B1: g28v2-D38-10_CLK19 (antibody, V domains shown)
VH: QVQLVQSGAEVKKPGASVKVSCKASGYTFTGYYIHWVRQAPGQGLEWMGWINPNSGGTNYPQKFQGRVTMTRDTSISTAYMELSRLRSDDTAVYYCALWFGEKWTFDIWGQGTMVTVSS
VL: DIQMTQSPSSLSASVGDRVTITCQASQDIGNYLNWYHQRPGKAPKLLIYDASNLETGVPSRFSGSGSGPDSTFTISTLQPEDIGTYYCQQYDTFGPGTKVDIK
B2: g28v2-D46-14_CLK19 (antibody, V domains shown)
VH: B1 VH with Q1R, S55R, Y80S, W104K
VL: DIQLTQSPSSLSASVGGRVTITCQASQDIHNYLNWYQQKPGKAPKILIHDVSNLETGVPSRFSGSRSGTDFTFTISSLLPEDIGTYYCQQYEFFGPGTKVDIK
B3: g28v2-D38-1_CLK19 (antibody, V domains shown)
VH: QVQLVQSGAEVKKPGASVKVSCKASGYTFTGHHMHWVRQAPGQGLEWLGWINPRGGGTNYAQKFQGRVTMTRDTSISTAYMDLSRLRSDDTAVYYCTPVLATFRWRFDYWGQGTLVTVSS
VL: DIQMTQSPSSLSASVGDRVTFTCQASQDISNFLNWYQQKPGKAPKLLIYDTSNLEAGVPSRFSGGGSGTDFTFTISSLQPEDVATYYCQQYATFGPGTKVDIK
B4: g28v2-D46-1_CLK19 (antibody, V domains shown)
VH: QVQLVQSGAEVKKPGAAVKVSCKASGYTFTGYYIHWVRQAPGQGLEWMGWVNPKTGATNYAQKFQGRVTMTRDTSISTTYMELRRLRSDETAVYFCATVMADFRWPFDYWGQGTLVTVSS
VL: B3 VL with F21I, S30N, F32Y, E55G, A56I, G65S, V83I, A84G, A92D
B5: g28v2-D38-2_CLK19 (antibody, V domains shown)
VH: QVQLVQSGAEVKKPGASVKVSCKASGYTFTDYYLHWVRQAPGQGLEWMGWINPIFGAPNYARKFQGRVTMTRDTSISTAYMELSRLNSDDTAVYYCTHVLATYRWRFDHWGQGTLVTVSS
VL: B3 VL with S30G, E55G, G65S, V83I
B6: g28v2-D38-9_CLK19 (antibody, V domains shown)
VH: B1 VH with G31V, I34M, W104K
VL: B1 VL with H37Q, R39K, A51T, S65G, S71F
B7: g28v2-D46-13_CLK19 (antibody, V domains shown)
VH: QVQLVQSGAEVKKPGASVKVSCKASGYTFTGNYMHWVRQAPGQGLEWMGWINPNSGGTNYAQKFQGRVTMTRDTSISTAHMELRSLRSDDTAVYYCARVEGSWFGKKWTFDIWGQGTMVTVSS
VL: B3 VL with D1A, F21I, S30T, F32Y, T51A, G65S, S77G, V83I, Y87S, A92E
B8: g28v2-D46-2_CLK19 (antibody, V domains shown)
VH: QVQLLQSGDEVKKPGASVRVSCKASGYTFTAYFLHWVRQAPGQGLEWMGWINPHSGGTNYAQRFQDRVTMTRDTSISTAYMELSRLRSDDTAVYYCTPVLADYRWRFAYWGQGTLVTVSS
VL: B3 VL with F21I, S30N, F32Y, S52T, A56I, G65S, V83F, T93A
B9: g28v2-D38-6_CLK19 (antibody, V domains shown)
VH: QVQLVQSGAEVREPGASVKVSCKASGYTFTGYYMHWVRQAPGQGLEWMGWINPNRGGTNLARKLQDRVTMTRDTSLSTAYMELRRLRTDDTAVYYCARVGEKWTFDIWGQGTMVTVSS
VL: B3 VL with I2L, F21I, S30N, F32Y, K42R, A56T, G65S, V83I, T93A
B10: g28v2-D46-3_CLK19 (antibody, V domains shown)
VH: QVQLVQSGAEVKKPGAAVKVSCKASGYTFTDYYMHWVRQAPGQGLEWMGWINPRYGGTNYAQKFQDRVTMTRDTSISTTYMELRRLKSDETAVYYCTTVMADYRWPFDYWGQGTLVTVSS
VL: B3 VL with F21I, T22S, S30N, F32C, E55G, A56T, G65S, V83I, A84G, A92D
B11: g28v2-D38-7_CLK19 (antibody, V domains shown)
VH: QVQLVQSGAEVKKPGASVKVSCKASGYTFTGYYMHWVRQAPGQGPEWMGWLNPNNGGTNFARKYQDRVTMTRDTSLSSAYMELSRLRSDDTAVYYCARVGEKWTFDFWGQGTMVTVSS
VL: B3 VL with F21I, S30N, F32Y, G65S, V83I, Y87F, T93A
B12: g28v2-D38-8_CLK19 (antibody, V domains shown)
VH: QVQLVQSGAEVKKPGASVKVSCKASGYSFSGYYMHWVRQAPGQGLEWMGWINPNHGGTNYAQKFQDRVTMTRDTSISTAYMELSRLRSDDTAVYFCARVDESWFGKKWTFDIWGQGTMVTVSS
VL: B3 VL with F21I, S30G, F32Y, A56T, G65S, T72S, S76A, V83I, A92D, T93I
B13: g28v2-D46-12_CLK19 (antibody, V domains shown)
VH: QVQLVQSGAEVKKPGASVKVSCKASGYTFTGYFMHWVRQAPGQGLEWMGWINPNTGGVNYSQKFQGRVTMTRDTSITTAYMELSSLRSDDTAVYFCVTALAGHGWRFDYWGQGTLVTVSS
VL: B3 VL with F21I, I29T, F32Y, T51A, A56T, G65S, S77G, V83I, A92E
B14: g28v2-D38-11_CLK19 (antibody, V domains shown)
VH: QVQLVQSGAEVKKPGASVKVSCKASGYTFTGYYMHWVRQAPGQGLEWMGWINPNSGGTNYAQIFQDRVTMTRDTSISTAYLELSRLRSDDTAVYYCTRVDGVWSFDIWGQGTMVTVSS
VL: B3 VL with D1N, F21I, F32Y, L46I, T51A, A56T, G65S, V83I, A92D
B15: g28v2-D46-10_CLK19 (antibody, V domains shown)
VH: QVQLVQSGAEVKRPGASVRVSCKASGYTFTGYYMHWVRQAPGQGLEWMGWINPNRGGVNYAHKFQGRVTMTRDTSISTAYMDLSRLRSDDTAVFYCTTALAGHGWRFDYWGQGTLVTVSS
VL: B3 VL with D1N, F21I, I29T, F32Y, T51A, A56T, G65S, S77G, V83I, A92E
B16: g28v2-D38-3_CLK19 (antibody, V domains shown)
VH: B3 VH with H32Y, H33F, L48M, R54H, G55F, G57A, D82E, T91W
VL: B3 VL with F21I, T22S, S30N, F32Y, A56T, G65S, V83I, A92D
B17: g28v2-D46-4_CLK19 (antibody, V domains shown)
VH: B10 VH with M34I, R54T
VL: B1 VL with T22S, G30N, H37Q, R39K, A51T, E55G, P69T, S71F, T77S
B18: g28v2-D46-11_CLK19 (antibody, V domains shown)
VH: B15 VH with R13K, G31D, N54H, R55S, D82E, F94Y
VL: B3 VL with F21I, I29T, F32Y, Q38L, T51A, A56T, G65S, S77G, V83I, A92E
B19: g28v2-D38-5_CLK19 (antibody, V domains shown)
VH: QVQLVQSGAEVKKPGASVKVSCKASGYTFIDYYIHWVRQAPGQGLEWMGWINPYHGGTNCAQKFQDRVTMTRDTSISTAYLEMSRLRSDDTAVFFCVIALAGHGWRFDYWGQGTQVTVSS
VL: B3 VL with F21I, S30N, F32Y, A56T, G65S, V83I, T93A
B20: g28-D78-9_CLK09 (antibody, V domains shown)
VH: QVQLVQSGAEVKKPGASVRVSCKASGYTFTGNYIHWVRQAPGQGLEWMGWLNPINGGTNHAQKFQGRVTMTRDTSISTAYMELSRLRSDDTTVYYCARVGGLWSGKGWTFDIWGQGTMVTVSS
VL: DIQMTQSPSSLSASVGDRVTITCQASQDISILNWYQQKPGKAPKLLIYGASNLETGVPSRFSGSGSGTDFTFTISSLQPEDIATYYCQQYEFFGGGTKVEIK
B21: g28v2-D38-4_CLK09 (antibody, V domains shown)
VH: QVQLVQSGAEVKKPGASVKVSCKASGYTFTDYFLHWVRQAPGQGLEWMGWINPTGGGVNYAQQFQGRVTLTRDTSISTAYMELTRLRSDDTAVYYCTPVLATFRWRFDYWGQGTLVTVSS
VL: DIQMTQSPSSLSASVGDRVTITCQASQDISNYLNWYQQKPGKAPKLLIYDVSNLGTGVPSRFSGSGSGTDFTFTISSLQPEDIATYYCQQYEFFGGGTKVEIK

Biological target: eOD-GT8 (monomeric ligand) (Human immunodeficiency virus 1, …)

| Binder | Kd |
| --- | --- |
| B1 | 0.0433 nM |
| B2 | 12 nM |
| B3 | 6.29 nM |
| B4 | 10.8 nM |
| B5 | 3710 nM |
| B6 | 0.149 nM |
| B7 | 0.193 nM |
| B8 | 0.344 nM |
| B9 | 5.38 nM |
| B10 | 0.338 nM |
| B11 | 0.0876 nM |
| B12 | 50.8 nM |
| B13 | 0.183 nM |
| B14 | 0.0422 nM |
| B15 | 1.35 nM |
| B16 | 105 nM |
| B17 | 0.106 nM |
| B18 | 0.0455 nM |
| B19 | 4.43 nM |
| B20 | 0.19 nM |
| B21 | 0.177 nM |
